Source: article PMC6786648

Target: EXP1 with G to L point mutations of the first glycine residues of the two GXXG motifs of the TM domain, Ty-tagged (P. falciparum) (UniProt Q8IIF0)
Test: cross-linking; in vivo: parasite cultures in PBS with 1% formaldehyde (PFA), 37°C, 30 minutes, quenched with 30 mM Tris-HCl pH 8.0; extracts of treated and untreated cells immunoblotted with α-Ty

EXP1 with G to L point mutations of the first glycine residues of the two GXXG motifs of the TM domain, Ty-tagged (from UniProt Q8IIF0 1-162) (natural protein)
stoichiometry N: 2
